# System: Escherichia coli TOP10
# Assay: shrunken log2 fold change of peptide-encoding DNA abundance (4.5 h post-induction vs induction); higher = less antimicrobial activity (less host growth inhibition)
# Settings: time post-induction: 4.5 h; library: site-saturation at positions 5, 18, 19, 20
# 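Note: peptides expressed intracellularly from a pBAD plasmid library in pooled LB shake-flask culture, induced with 0.3% L-arabinose, DNA abundance read by NGS, three biological replicates, DESeq2 with apeglm shrinkage.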
row,Sequence,shrunken log2 fold change
1,RRIRYRPPRLPRPRPRPTTDPRP,-0.775
2,RRIRYRPPRLPRPRPRPTTPPRP,-0.437
3,RRIRYRPPRLPRPRPRPTVLPRP,0.00488
4,RRIRYRPPRLPRPRPRPTWDPRP,0.114
5,RRIRYRPPRLPRPRPRPTWGPRP,-0.19
6,RRIRYRPPRLPRPRPRPTWMPRP,0.0576
7,RRIRYRPPRLPRPRPRPVCAPRP,-0.232
8,RRIRYRPPRLPRPRPRPVCMPRP,-0.314
9,RRIRYRPPRLPRPRPRPVEAPRP,-0.35
10,RRIRYRPPRLPRPRPRPVEKPRP,-0.129
11,RRIRYRPPRLPRPRPRPVFAPRP,0.0473
12,RRIRYRPPRLPRPRPRPVFEPRP,0.0623
13,RRIRYRPPRLPRPRPRPVHEPRP,0.0155
14,RRIRYRPPRLPRPRPRPVIGPRP,-0.661
15,RRIRYRPPRLPRPRPRPVIRPRP,-0.139
16,RRIRYRPPRLPRPRPRPVKRPRP,-0.00146
17,RRIRYRPPRLPRPRPRPVLTPRP,-0.0151
18,RRIRYRPPRLPRPRPRPVMVPRP,-0.139
19,RRIRYRPPRLPRPRPRPVNDPRP,-0.24
20,RRIRYRPPRLPRPRPRPVPRPRP,0.204
21,RRIRYRPPRLPRPRPRPVQLPRP,-0.779
22,RRIRYRPPRLPRPRPRPVSAPRP,-0.332
23,RRIRYRPPRLPRPRPRPVSHPRP,-0.00492
24,RRIRYRPPRLPRPRPRPVSKPRP,-0.069
25,RRIRYRPPRLPRPRPRPVSLPRP,-0.267
26,RRIRYRPPRLPRPRPRPVTVPRP,-0.302

row,Sequence,shrunken log2 fold change
1,RRIRYRPPRLPRPRPRPVVRPRP,-0.203
2,RRIRYRPPRLPRPRPRPVVWPRP,-0.00976
3,RRIRYRPPRLPRPRPRPVYPPRP,-0.208
4,RRIRYRPPRLPRPRPRPWACPRP,-0.263
5,RRIRYRPPRLPRPRPRPWAQPRP,-0.37
6,RRIRYRPPRLPRPRPRPWCFPRP,-0.369
7,RRIRYRPPRLPRPRPRPWDCPRP,-0.00865
8,RRIRYRPPRLPRPRPRPWDGPRP,-0.196
9,RRIRYRPPRLPRPRPRPWDSPRP,-0.00191
10,RRIRYRPPRLPRPRPRPWGQPRP,0.00911
11,RRIRYRPPRLPRPRPRPWHRPRP,-0.172
12,RRIRYRPPRLPRPRPRPWIFPRP,-0.505
13,RRIRYRPPRLPRPRPRPWLAPRP,0.00503
14,RRIRYRPPRLPRPRPRPWLIPRP,-0.204
15,RRIRYRPPRLPRPRPRPWLRPRP,0.0188
16,RRIRYRPPRLPRPRPRPWMFPRP,-0.273
17,RRIRYRPPRLPRPRPRPWMWPRP,0.0261
18,RRIRYRPPRLPRPRPRPWNDPRP,-0.0728
19,RRIRYRPPRLPRPRPRPWNTPRP,-0.384
20,RRIRYRPPRLPRPRPRPWPIPRP,0.044
21,RRIRYRPPRLPRPRPRPWPKPRP,0.203
22,RRIRYRPPRLPRPRPRPWSFPRP,-0.522
23,RRIRYRPPRLPRPRPRPWSPPRP,-0.848
24,RRIRYRPPRLPRPRPRPWSSPRP,0.0132
25,RRIRYRPPRLPRPRPRPWTKPRP,-0.319
26,RRIRYRPPRLPRPRPRPWTNPRP,-0.00804

row,Sequence,shrunken log2 fold change
1,RRIRYRPPRLPRPRPRPWVPPRP,-0.0218
2,RRIRYRPPRLPRPRPRPWWYPRP,-0.139
3,RRIRYRPPRLPRPRPRPYAPPRP,-0.784
4,RRIRYRPPRLPRPRPRPYDYPRP,-0.145
5,RRIRYRPPRLPRPRPRPYEAPRP,-0.336
6,RRIRYRPPRLPRPRPRPYEQPRP,-0.0134
7,RRIRYRPPRLPRPRPRPYFPPRP,-0.702
8,RRIRYRPPRLPRPRPRPYIAPRP,-1.23
9,RRIRYRPPRLPRPRPRPYIFPRP,-0.322
10,RRIRYRPPRLPRPRPRPYMEPRP,-0.0102
11,RRIRYRPPRLPRPRPRPYMHPRP,0.0498
12,RRIRYRPPRLPRPRPRPYMLPRP,-1.3
13,RRIRYRPPRLPRPRPRPYMQPRP,-0.117
14,RRIRYRPPRLPRPRPRPYMVPRP,-0.386
15,RRIRYRPPRLPRPRPRPYNNPRP,-1.43
16,RRIRYRPPRLPRPRPRPYPKPRP,-0.201
17,RRIRYRPPRLPRPRPRPYPMPRP,-0.744
18,RRIRYRPPRLPRPRPRPYQIPRP,-0.659
19,RRIRYRPPRLPRPRPRPYSPPRP,-0.0311
20,RRIRYRPPRLPRPRPRPYSRPRP,-0.01
21,RRIRYRPPRLPRPRPRPYSSPRP,-0.0396
22,RRIRYRPPRLPRPRPRPYTKPRP,-0.351
23,RRIRYRPPRLPRPRPRPYWKPRP,-0.0135
24,RRIRYRPPRLPRPRPRPYYLPRP,-0.31
25,RRIRYRPPRLPRPRPRPYYYPRP,-0.476
